From patent US20150274820A1 (ESBATECH AN ALCON BIOMEDICAL RESEARCH UNIT, published 2015)

How the values were obtained:
[1] = target: T1, recombinant human VEGF165 (human, UniProt P15692 27-191); assay: Biacore SPR, VEGF immobilized, pH 5
T1 construct: mature; Isoform VEGF165 of the entry; also called hVEGF165; hVEGF
Procedure: (§1) In this example, the Biacore-binding ability of scFvs was tested and the binding affinity was measured using the exemplary surface plasmon resonance method with BIAcore™-T100. The VEGF proteins, tested for binding by these scFv candidates, in this example and later examples include purified Escherichia coli-expressed recombinant human VEGF₁₆₅ (PeproTech EC Ltd.), recombinant human VEGF₁₂₁ (PeproTech EC Ltd.), recombinant human VEGF₁₁₀ (ESBATech AG), recombinant murine VEGF₁₆₄ (PeproTech EC Ltd.), recombinant rat VEGF₁₆₄ (Biovision), recombinant rabbit VEGF₁₁₀ (ESBATech AG), and recombinant human PLGF (PeproTech EC Ltd.). For the surface plasmon resonance experiment, carboxymethylated dextran biosensor chips (CM4, GE Healthcare) were activated with N-ethyl-N′-(3-dimethylaminopropyl) carbodiimide hydrochloride and N-hydroxysuccinimide according to the supplier's instructions. Each of the 6 different VEGF forms, as exemplified above, was coupled to 1 of the 4 different flow cells on a CM4 sensor chip using a standard amine-coupling procedure. […] The 4th flow cell of each chip was treated similarly except no proteins were immobilized prior to blocking, and the flow cell was used as in-line reference. […] Dissociation of the anti-VEGF scFv from the VEGF on the CM4 chip was allowed to proceed for 10 min at 25° C. Sensorgrams were generated for each anti-VEGF scFv sample after in-line reference cell correction followed by buffer sample subtraction. The apparent dissociation rate constant (kd), the apparent association rate constant (kₐ) and the apparent dissociation equilibrium constant (KD) were calculated using one-to-one Langmuir binding model with BIAcore T100 evaluation Software version 1.1.

[2] = target: T1, recombinant human VEGF165; assay: Biacore SPR, VEGF immobilized, pH 7.4
Procedure: as §1

[3] = target: T1, recombinant human VEGF165; assay: Biacore SPR, VEGF immobilized, pH 5; remark: listed apart in the source
Procedure: as §1, with “1.1. […]” for “1.1.”

T1 sequence (P15692 other isoform, or with tags, fused parts or gaps): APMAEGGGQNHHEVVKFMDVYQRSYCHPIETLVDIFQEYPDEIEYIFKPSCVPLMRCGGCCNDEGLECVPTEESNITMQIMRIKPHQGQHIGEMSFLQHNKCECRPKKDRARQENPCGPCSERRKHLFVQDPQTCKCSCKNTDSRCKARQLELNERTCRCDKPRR

Row | Binder | koff [1] [s⁻¹] | kon [1] [M⁻¹ s⁻¹] | kon [2] [M⁻¹ s⁻¹] | koff [2] [s⁻¹] | Kd [3] [nM] | koff [3] [s⁻¹] | kon [3] [M⁻¹ s⁻¹]
1 | 610-min (scFv, VL and VH tied by name; also called Protein Nr) scFv: EIVMTQSPSTLSASVGDRVIITCQASQSISSWLSWYQQKPGKAPKLLIYQASTLASGVPSRFSGSGSGAEFTLTISSLQPDDFATYYCQNNYGFRSYGGAFGQGTKLTVLGGGGGSGGGGSGGGGSGGGGSEVQLVESGGGLVQPGGSLRLSCAASGIDFSGAYYMGWVRQAPGKGLEWVSYIDYDGDRYYASWAKGRFTISRDNSKNTLYLQMNSLRAEDTAVYYCAKSDYSSGWGTDIWGQGTLVTVSS | 0.00265 | 251000 |  |  |  |  | 
2 | 375-min (scFv, VL and VH tied by name; also called Protein Nr; 857) scFv: EIVMTQSPSTLSASVGDRVIITCQASENINIWLSWYQQKPGKAPKLLIYQASKLASGVPSRFSGSGSGAEFTLTISSLQPDDFATYYCQNNYSYNRYGAPFGQGTKLTVLGGGGGSGGGGSGGGGSGGGGSEVQLVESGGGLVQPGGSLRLSCAASGFSFTTTDYMCWVRQAPGKGLEWVSCILAGDGSTYYANWAKGRFTISRDNSKNTLYLQMNSLRAEDTAVYYCAKSDPASSWSFALWGQGTLVTVSS | 0.00501 | 927000 | > 1e+08 |  |  |  | 
3 | 375-max (scFv, VL and VH tied by name; also called Protein Nr; 873) scFv: EIVMTQSPSTLSASVGDRVIITCQASENINIWLSWYQQKPGKAPKLLIYQASKLASGVPSRFSGSGSGTQFTLTISSLQPDDFATYYCQNNYSYNRYGAPFGQGTKLTVLGGGGGSGGGGSGGGGSGGGGSEVQLVESGGGLVQPGGSLRLSCKASGFSFTTTDYMCWVRQAPGKGLEWVGCILAGDGSTYYANWAKGRFTGSKDTSKNTVYLQMNSLRAEDTAVYYCARSDPASSWSFALWGQGTLVTVSS | 0.00655 | 2.44e+06 | 5.09e+07 | 0.242 |  |  | 
4 | 435-min (scFv, VL and VH tied by name; also called Protein Nr; 944) scFv: EIVMTQSPSTLSASVGDRVIITCQASQSIGSSLAWYQQKPGKAPKLLIYTAANLASGVPSRFSGSGSGAEFTLTISSLQPDDFATYYCQNFATSDTVTFGQGTKLTVLGGGGGSGGGGSGGGGSGGGGSEVQLVESGGGLVQPGGSLRLSCAASGFSLNTNYWMCWVRQAPGKGLEWVSCMYTGSYNRAYYASWAKGRFTISRDNSKNTLYLQMNSLRAEDTAVYYCAKGSNWYSDLWGQGTLVTVSS |  |  | 495000 | 0.0143 |  |  | 
5 | 511max_min (scFv, also called Protein Nr; 905) scFv: EIVMTQSPSTLSASVGDRVIITCQASQSINIWLSWYQQKPGKAPKLLIYRASTLASGVPSRFSGSGSGTEFTLTISSLQPDDFATYYCQANYAYSAGYGAAFGQGTKLTVLGGGGGSGGGGSGGGGSGGGGSEVQLVESGGGLVQPGGSLRLSCAASGFSLNTYYMNWVRQAPGKGLEWVSIIAPDDTTYYASWAKSRFTISRDNSKNTLYLQMNSLRAEDTAVYYCAKSGDTTAWGADIWGQGTLVTVSS |  |  |  |  | 1.48 | 0.000754 | 511000
6 | 511min_max (scFv, also called Protein Nr; 904) scFv: EIVMTQSPSTLSASVGDRVIITCQASQSINIWCSWYQQKPGKAPKLLIYRASTLASGVPSRFSGSGSGAEFTLTISSLQPDDFATYYCQANYAYSAGYGAAFGQGTKLTVLGGGGGSGGGGSGGGGSGGGGSEVQLVESGGGLVQPGGSLRLSCTVSGFSLNTYYMNWVRQAPGKGLEWVGIIAPDDTTYYASWAKSRSTISRDTSKNTVYLQMNSLRAEDTAVYYCARSGDTTAWGADIWGQGTLVTVSS |  |  |  |  | 0.278 | 0.000102 | 366000
7 | 578-max FW1.4_DHP (scFv, Tied by name only; also called Protein Nr; 960) scFv: EIVMTQSPSTLSASVGDRVIITCQASEIIHSWLAWYQQKPGKAPKLLIYLASTLASGVPSRFSGSGSGTQFTLTISSLQPDDFATYYCQNVYLASTNGANFGQGTKLTVLGGGGGSGGGGSGGGGSGGGGSEVQLVESGGGSVQPGGSLRLSCTASGFSLTDYYYMTWVRQAPGKGLEWVGFIDPDDDPYYATWAKGRFTISRDTSKNTVYLQMNSLRAEDTATYYCAGGDHNSGWGLDIWGQGTTVTVSS |  |  |  |  | 0.266 | 0.000248 | 930000
8 | 534-min C-His (scFv, VL and VH tied by name; His tag only named (C-His); also called Protein Nr; 807; not shown: C-terminal His tag) scFv: EIVMTQSPSTLSASVGDRVIITCQASQSINIWLSWYQQKPGKAPKLLIYKESTLASGVPSRFSGSGSGAEFTLTISSLQPDDFATYYCQNNYDSGNNGFPFGQGTKLTVLGGGGGSGGGGSGGGGSGGGGSEVQLVESGGGLVQPGGSLRLSCAASGFSLSYYYMSWVRQAPGKGLEWVSIIGPGDYTDYASWAKGRFTISRDNSKNTLYLQMNSLRAEDTAVYYCAKGDDNSGWGEDIWGQGTLVTVSS | 0.00921 | 271000 |  |  |  |  | 

The remaining lines, values ahead:

Row | koff [1] [s⁻¹] | kon [1] [M⁻¹ s⁻¹] | kon [2] [M⁻¹ s⁻¹] | koff [2] [s⁻¹] | Kd [3] [nM] | koff [3] [s⁻¹] | kon [3] [M⁻¹ s⁻¹] | Binder
9 | 0.000601 | 509000 | > 1e+08 |  |  |  |  | 610-max (scFv, VL and VH tied by name; also called Protein Nr) scFv: EIVMTQSPSTLSASVGDRVIITCQASQSISSWLSWYQQKPGKAPKLLIYQASTLASGVPSRFSGSGSGTEFTLTISSLQPDDFATYYCQNNYGFRSYGGAFGQGTKLTVLGGGGGSGGGGSGGGGSGGGGSEVQLVESGGGLVQPGGSLRLSCTASGIDFSGAYYMGWVRQAPGKGLEWVGYIDYDGDRYYASWAKGRFTISKDTSKNTVYLQMNSLRAEDTAVYYCARSDYSSGWGTDIWGQGTLVTVSS
10 |  |  |  |  | 0.615 | 0.000493 | 801000 | 578min_max T84N_V89A (scFv, the VH entry already carries the changes; tied by name; also called Protein Nr; 1009) scFv: EIVMTQSPSTLSASVGDRVIITCQASEIIHSWLAWYQQKPGKAPKLLIYLASTLASGVPSRFSGSGSGAEFTLTISSLQPDDFATYYCQNVYLASTNGANFGQGTKLTVLGGGGGSGGGGSGGGGSGGGGSEVQLVESGGGLVQPGGSLRLSCTASGFSLTDYYYMTWVRQAPGKGLEWVGFIDPDDDPYYATWAKGRFTISRDNSKNTAYLQMNSLRAEDTAVYYCAGGDHNSGWGLDIWGQGTLVTVSS
11 |  |  |  |  | 0.971 | 0.0007 | 721000 | 578min_max T84N (scFv, the VH entry already carries T84N; tied by name; also called Protein Nr) scFv: EIVMTQSPSTLSASVGDRVIITCQASEIIHSWLAWYQQKPGKAPKLLIYLASTLASGVPSRFSGSGSGAEFTLTISSLQPDDFATYYCQNVYLASTNGANFGQGTKLTVLGGGGGSGGGGSGGGGSGGGGSEVQLVESGGGLVQPGGSLRLSCTASGFSLTDYYYMTWVRQAPGKGLEWVGFIDPDDDPYYATWAKGRFTISRDNSKNTVYLQMNSLRAEDTAVYYCAGGDHNSGWGLDIWGQGTLVTVSS
12 |  |  |  |  | 1.2 | 0.000612 | 509000 | 578min_max V89A (scFv, the VH entry already carries V89A; tied by name; also called Protein Nr; 978) scFv: EIVMTQSPSTLSASVGDRVIITCQASEIIHSWLAWYQQKPGKAPKLLIYLASTLASGVPSRFSGSGSGAEFTLTISSLQPDDFATYYCQNVYLASTNGANFGQGTKLTVLGGGGGSGGGGSGGGGSGGGGSEVQLVESGGGLVQPGGSLRLSCTASGFSLTDYYYMTWVRQAPGKGLEWVGFIDPDDDPYYATWAKGRFTISRDTSKNTAYLQMNSLRAEDTAVYYCAGGDHNSGWGLDIWGQGTLVTVSS
13 |  |  |  |  | 6.55 | 0.00883 | 1.35e+06 | 578-max-min (scFv, also called Protein Nr; 902) scFv: EIVMTQSPSTLSASVGDRVIITCQASEIIHSWLAWYQQKPGKAPKLLIYLASTLASGVPSRFSGSGSGTQFTLTISSLQPDDFATYYCQNVYLASTNGANFGQGTKLTVLGGGGGSGGGGSGGGGSGGGGSEVQLVESGGGLVQPGGSLRLSCAASGFSLTDYYYMTWVRQAPGKGLEWVSFIDPDDDPYYATWAKGRFTISRDNSKNTLYLQMNSLRAEDTAVYYCAKGDHNSGWGLDIWGQGTLVTVSS
14 |  |  |  |  | 2.13 | 0.00187 | 875000 | 578min_max V89L (scFv, the VH entry already carries V89L; tied by name; also called Protein Nr; 980) scFv: EIVMTQSPSTLSASVGDRVIITCQASEIIHSWLAWYQQKPGKAPKLLIYLASTLASGVPSRFSGSGSGAEFTLTISSLQPDDFATYYCQNVYLASTNGANFGQGTKLTVLGGGGGSGGGGSGGGGSGGGGSEVQLVESGGGLVQPGGSLRLSCTASGFSLTDYYYMTWVRQAPGKGLEWVGFIDPDDDPYYATWAKGRFTISRDTSKNTLYLQMNSLRAEDTAVYYCAGGDHNSGWGLDIWGQGTLVTVSS
